Experimental data: the supplement of paper PMC7877785
± gives the uncertainty stated by the source.

Test: self-splicing fitness, log relative to wild type (ln ratio); higher = more splicing; Tetrahymena group I intron in knt gene, E. coli kanamycin selection, DiMSum; sequences stand for … in CUCUCU…GGAGGGAAAAGUUAUCAGGCAUGCACCUGGUAGCUAGUCUUUAAACCAAUAGAUUGCAUCGGUUUAAAAGGCAAGACCGUCAAAUUGCGGGAAAGGGGUCAACAGCCGUUCAGUACCAAGUCUCAGGGGAAACUUUGAGAUGGCCUUGCAAAGGGUAUGGUAAUAAGCUGACGGACAUGGUCCUAACCACGCAGCCAAGUCCUAAGUCAACAGAUCUUCUGUUGAUAUGGAUGCAGUUCACAGACUAAAUGUCGGUCGGGGAAGAUGUAUUCUUCUCAUAAGAUAUAGUCGGACCUCUCCUUAAUGGGAGCUAGCGGAUGAAGUGAUGCAACACUGGAGCCGCUGGGAACUAAUUUGUAUGCGAAAGUAUAUUGAUUAGUUUUGGAGUACUCGUGGUCG
How it was run: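 Pooled colonies went to amplicon sequencing on an Illumina HiSeq 2500 after six replicate transformations. The plates were LB agar with 100 μg/mL carbenicillin, 50 μM IPTG and 0.2% rhamnose, with or without 25 μg/mL kanamycin, incubated overnight at 37°C or 30°C. The E. coli BL21(DE3) library had all eight P1ex-region intron nucleotides randomised, the intron placed in the knt kanamycin-resistance gene on pET-22b(+). DiMSum fitness is the error-weighted combination of replicate fold changes, kanamycin against none, normalised to wild type.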

Row | Sequence | self-splicing fitness (ln) (30 °C) | self-splicing fitness (ln) (37 °C)
1 | AUACAGCAAUAUUACGGUUA | -0.52 ± 0.069 | -0.372 ± 0.071
2 | AUACAGCAAUAUUACGUCAG | -3.05 ± 0.13 | -1.23 ± 0.13
3 | AUACAGCAAUAUUACGUUAC | -3.94 ± 0.25 | -2.79 ± 0.27
4 | AUACAGCAAUAUUACGUUGU | -2.77 ± 0.098 | -2.81 ± 0.13
5 | AUAGAGCAAUAUUACGAAAU | -0.572 ± 0.1 | 0.0653 ± 0.13
6 | AUAGAGCAAUAUUACGAACA | -1.9 ± 0.16 | -1.09 ± 0.25
7 | AUAGAGCAAUAUUACGAACC | -2.16 ± 0.14 | -1.02 ± 0.14
8 | AUAGAGCAAUAUUACGAGCA | -2.57 ± 0.19 | -0.949 ± 0.2
9 | AUAGAGCAAUAUUACGAGGU | -3.58 ± 0.44 | -2.94 ± 0.27
10 | AUAGAGCAAUAUUACGAGUA | -3.77 ± 0.33 | -2.52 ± 0.28
11 | AUAGAGCAAUAUUACGAUAG | -3.43 ± 0.34 | -1.62 ± 0.23
12 | AUAGAGCAAUAUUACGAUCC | -3.08 ± 0.33 | -2.18 ± 0.36
13 | AUAGAGCAAUAUUACGAUUA | -2.45 ± 0.21 | -0.158 ± 0.17
14 | AUAGAGCAAUAUUACGCACG | -1.57 ± 0.18 | -0.997 ± 0.23
15 | AUAGAGCAAUAUUACGCCAU | -2.25 ± 0.18 | -1.66 ± 0.27
16 | AUAGAGCAAUAUUACGCCCU | -0.756 ± 0.19 | -0.622 ± 0.37
17 | AUAGAGCAAUAUUACGCCGA | -1.81 ± 0.19 | -0.0699 ± 0.32
18 | AUAGAGCAAUAUUACGCCGC | – | -2.75 ± 0.44
19 | AUAGAGCAAUAUUACGCUCA | -0.0598 ± 0.076 | 0.193 ± 0.12
20 | AUAGAGCAAUAUUACGGAGU | -0.705 ± 0.093 | -1.03 ± 0.14

Row | Sequence | self-splicing fitness (ln) (30 °C) | self-splicing fitness (ln) (37 °C)
21 | AUAGAGCAAUAUUACGGCCA | -1.25 ± 0.15 | -1.02 ± 0.24
22 | AUAGAGCAAUAUUACGUACU | -0.65 ± 0.12 | 0.124 ± 0.14
23 | AUAGAGCAAUAUUACGUCCG | -2.71 ± 0.23 | -3.65 ± 0.34
24 | AUAGAGCAAUAUUACGUCCU | -1.42 ± 0.093 | -0.577 ± 0.14
25 | AUAGAGCAAUAUUACGUGCG | -1.6 ± 0.11 | -0.384 ± 0.11
26 | AUAGAGCAAUAUUACGUUCG | -0.386 ± 0.077 | -0.257 ± 0.092
27 | AUAUAGCAAUAUUACGACAU | 0.126 ± 0.014 | 0.224 ± 0.033
28 | AUAUAGCAAUAUUACGACGA | -1.1 ± 0.22 | -0.564 ± 0.28
29 | AUAUAGCAAUAUUACGAGAG | – | -2.29 ± 0.22
30 | AUAUAGCAAUAUUACGAGAU | -3.01 ± 0.14 | -0.91 ± 0.13
31 | AUAUAGCAAUAUUACGAGCG | -2.19 ± 0.17 | -0.66 ± 0.16
32 | AUAUAGCAAUAUUACGAGGC | -2.74 ± 0.26 | –
33 | AUAUAGCAAUAUUACGAGUC | -2.97 ± 0.34 | -2.63 ± 0.45
34 | AUAUAGCAAUAUUACGCAGU | -2.86 ± 0.25 | -3.1 ± 0.33
35 | AUAUAGCAAUAUUACGCAUG | -1.66 ± 0.12 | -0.477 ± 0.14
36 | AUAUAGCAAUAUUACGCCCA | -1.31 ± 0.3 | -0.688 ± 0.3
37 | AUAUAGCAAUAUUACGCCCG | -1.67 ± 0.21 | -1.56 ± 0.42
38 | AUAUAGCAAUAUUACGCGCC | -1.51 ± 0.33 | -1.35 ± 0.41
39 | AUAUAGCAAUAUUACGCUAG | -1.69 ± 0.25 | -1.19 ± 0.3
